In one data set the target is T1, AfERG10A (Aspergillus fumigatus, UniProt B0XMC1).
T1 construct: gene erg10A; pGEX-6P1 GST tag cleaved by PreScission; E. coli BL21(DE3)/pLysS; homotetramer
T1 sequence (B0XMC1 36-433): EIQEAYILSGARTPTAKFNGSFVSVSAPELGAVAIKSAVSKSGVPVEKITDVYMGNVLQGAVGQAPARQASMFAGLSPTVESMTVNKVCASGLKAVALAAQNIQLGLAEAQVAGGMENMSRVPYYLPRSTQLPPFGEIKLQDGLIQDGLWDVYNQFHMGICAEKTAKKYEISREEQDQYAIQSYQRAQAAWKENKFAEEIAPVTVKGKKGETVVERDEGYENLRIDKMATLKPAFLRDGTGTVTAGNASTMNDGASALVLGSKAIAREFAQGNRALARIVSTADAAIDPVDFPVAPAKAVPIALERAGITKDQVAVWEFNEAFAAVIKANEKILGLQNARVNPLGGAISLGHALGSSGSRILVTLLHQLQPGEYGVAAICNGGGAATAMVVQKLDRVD
The experiment in a line: X-ray crystal structure of the complex, […] Å. Particulars: crystals from 0.1 M HEPES pH 7.0, 2 M ammonium sulfate with CoA; CoA binding site.

Substrate in the data set “purified protein”: CC(=O)SCCNC(=O)CCNC(=O)[C@H](O)C(C)(C)COP(=O)(O)OP(=O)(O)OC[C@H]1O[C@@H](n2cnc3c(N)ncnc32)[C@H](O)[C@@H]1OP(=O)(O)O
The experiment in a line: purified protein. The class given is biochemical, Aspergillus fumigatus. Particulars: 50 mM Tris-HCl pH 7.4, 0.2 mM NADH, 0.5 mM DTT, 30°C.

Data set [1] deals with the molecule itself. In words: crystal structure; apo and CoA-complexed AfERG10A; sitting drop at room temperature, 0.1 M HEPES (pH 7.0), 2 M ammonium sulfate, in the absence or presence of CoA; refined to 2.4 Å; four molecules in one asymmetric unit.
Substrate in data set [2]: CC(C)(COP(=O)(O)OP(=O)(O)OC[C@H]1O[C@@H](n2cnc3c(N)ncnc32)[C@H](O)[C@@H]1OP(=O)(O)O)[C@@H](O)C(=O)NCCC(=O)NCCS
In words: Mg2+ method, degradative (thiolysis) reaction, steady-state kinetics. Particulars: acetoacetyl-CoA co-substrate (10 μM in the mixture as printed), 50 mM Tris-HCl pH 8.1, 20 mM MgCl2, 40 mM KCl, 30°C. The class given is biochemical, Aspergillus fumigatus. The source says: (§1) Mg2+ method, degradative (thiolysis) reaction, steady-state kinetics on AfERG10A

Substrate in data set [3]: CC(=O)CC(=O)SCCNC(=O)CCNC(=O)[C@H](O)C(C)(C)COP(=O)(O)OP(=O)(O)OC[C@H]1O[C@@H](n2cnc3c(N)ncnc32)[C@H](O)[C@@H]1OP(=O)(O)O
Described as above. Format: biochemical, Aspergillus fumigatus. The settings on record: CoA co-substrate (60 μM in the mixture as printed), 50 mM Tris-HCl pH 8.1, 20 mM MgCl2, 40 mM KCl, 30°C.
Source text: as §1

These results are taken from article PMC7082573, “Aspergillus fumigatus Mitochondrial Acetyl Coenzyme A Acetyltransferase as an Antifungal Target” (Applied and Environmental Microbiology, 2020).

In general, Km refers to the substrate concentration at which the rate is half of its maximum. The kcat is the maximal rate divided by the concentration of active sites. One may read the stoichiometry N as the number of molecules, sites or subunits per partner or assembly.

As to `CC(C)(COP(=O)(O)OP(=O)(O)OC[C@H]1O[C@@H](n2cnc3c(N)ncnc32)[C@H](O)[C@@H]1OP(=O)(O)O)[C@@H](O)C(=O)NCCC(=O)NCCS` [CoA], the “X-ray crystal structure of the complex, 2.4 Å” value at AfERG10A was “structures of apo- and CoA-complexed AfERG10A were determined”.

B1: Aspergillus fumigatus acetyl-CoA acetyltransferase AfERG10A (residues 36 to 433) (enzyme, UniProt B0XMC1 36-433, looked up)
chain: EIQEAYILSGARTPTAKFNGSFVSVSAPELGAVAIKSAVSKSGVPVEKITDVYMGNVLQGAVGQAPARQASMFAGLSPTVESMTVNKVCASGLKAVALAAQNIQLGLAEAQVAGGMENMSRVPYYLPRSTQLPPFGEIKLQDGLIQDGLWDVYNQFHMGICAEKTAKKYEISREEQDQYAIQSYQRAQAAWKENKFAEEIAPVTVKGKKGETVVERDEGYENLRIDKMATLKPAFLRDGTGTVTAGNASTMNDGASALVLGSKAIAREFAQGNRALARIVSTADAAIDPVDFPVAPAKAVPIALERAGITKDQVAVWEFNEAFAAVIKANEKILGLQNARVNPLGGAISLGHALGSSGSRILVTLLHQLQPGEYGVAAICNGGGAATAMVVQKLDRVD
notes: AfERG10A (AFUB_000550), mitochondrial acetyl-CoA acetyltransferase of Aspergillus fumigatus, whole protein 433 amino acids; Cloned from cDNA into pGEX-6P1 with primers P13/P14; After PreScission cleavage a few vector residues probably remain at the N-terminus; Primer P13 carries a Lys codon (AAA) before GAG (Glu), so the construct may begin one residue earlier or have an added Lys; also called …
In the case of B1, the Michaelis-Menten constant (Km) in “purified protein” was 232 ± 49 µM; in data set [2], 26 ± 5 µM; in data set [3] it was 43 ± 9 µM. Besides, the figures for the kcat (in the data set “purified protein”; in data set [2]; in data set [3]) were 7 ± 0.4 s⁻¹, 5 ± 0.2 s⁻¹ and 3 ± 0.2 s⁻¹, respectively. The “stoichiometry N” value in data set [1] was 4.
